Reference: the nanobody polyreactivity screen of Harvey et al. (2022)

Test: yeast display, Sf9 membrane polyspecificity reagent, FACS + sequencing; frameworks hold sequencing errors
Outline: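 Nanobodies from a synthetic yeast display library (Saccharomyces cerevisiae BJ5465), induced 36–48 hours with galactose, were stained 1 hour at 4 °C with 10% biotinylated, detergent-solubilized Sf9 membrane reagent, enriched on streptavidin microbeads, then FACS-sorted. Anti-HA (expression) and streptavidin (reagent binding) fluorescence set low and high (top ~1%) gates. Polyreactivity labels come from the gate of origin. Genes were colony-PCR amplified, MiSeq 2 × 250 sequenced and filtered by CDR length.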

Sequence | polyreactivity (PSR sort gate)
QVQLVESGGGLVQAGGSLRLSCAMGWYRPAPGKERELVAGITGGGRTHYADSVKGRFTISRDNAKNTVYLQMNSLKPEDTAVYYCAAGGVRSQVPWSWYYYWGQGTQVTVSS | low polyreactivity
QVQLVESGGGLVQAGGSLRLSCAASGRIFVHNAMGWYSQARGKERELVAAINSGGSTNYADSVKGRFTISRDNANKTVYLQMNSLKPEDTAVYYCAAYWYPYPDAFEYYNYGYWGQGTQVTVSS | high polyreactivity
EVQLVESGGGLVQAGGSLRLSCAASGFIFVSYAMGWYRQAPGKERELVAAISWSGGNTYYADSVKGRFTISRDNAKNTVYLQMNSLKPEDTAVYYCNTDKRSYPTHRRDFGYWGQGTQVTVSS | low polyreactivity
QVQHVESGGGLVQAGGSLRLSCAASGLTFAGYTMGWYRQAPGKERELVAAITRGGGRTYYADSVKGRFTISRDNAKNTVYLQMNSLKPEDTAVYYCATVSQYRGYYWGQGTQVTVSS | high polyreactivity
QVQLVESGGCLVQAGGSLRLSCAASGSTFWSYAMGLYRQAPGKARELVAVIYRGGSTNYADSVKGRFTISRDNAKNTVYVQMNSLKREDTAVYYCASRYKTAEYYYWGQGTQVTVSS | high polyreactivity
QVQLVESGGGLVQAGGSLRLSCAASGFTLYVNAKGWYRQAPGKERELVAAISWSGGSTYYADSVKGRFTISRDNAKNTVYLQMNSLKPEDTAVYYCNAKYHRRLQWGTRYYYWGQGTQVTVSS | high polyreactivity
PVQLVESGGGLVQAGGSLRLSCAASGRTFYAFDMGWSRQAPGKERELVSRITSGGSTDYADSVKGRFTSSRDNAKNTVYLQMNSLKPEDTAVYYCAAETSYAVSTGDHFDYWGQGTQVTVSS | high polyreactivity
QVQLVESGGGLVQAGGSLRLSCAASGSTFWPYAMGWYRQAPGKERELVAAITTRDGSTYYADSVKGRFTISRDNAKNTVYLQMNSLKPEDTAVYYCAAKSSRYDYYYWGQGTQVTVSS | high polyreactivity
QVHLVESGGGLVQAGGSLRISCAASGSTFHGYAMGWYRQEPGKEMELVAAITSGDSTNYADSVKGRFTISRDNAKNTVYLQMNSLKPEDTAVYFCNAEGDSLLTGYWGYPPYWDTYDNWGQGTQVTVSS | low polyreactivity
QVQLVESGGGLVQAGGSLRLSCAASGRIFGKYTMGWYRQAPGKERELVAAISWGGGSTYYADSVKGRFTISRDNAKNTVYLQMNSLKPEDTAVYYCAADYYYYHTQEYDYWGQGTQVTVSS | high polyreactivity
QVQLVESGGGLVQAGGSLRISCAASGFTFYTNAMGWYIQAPGKERELVAAISSGGSTNYADSVKGRFTISRDNAKNTVYLQMNSLQPEDSAVYYCAARRGYWGQGTQVTVSS | high polyreactivity
QVQLVESGGGLVQAGGSLRLSCAATGNIFRYNAMGWYRQAPGKERELFAAISSVGTTNYADSVKGRFTISRDNEKNTVYLQMNSLKPEDTAVYYVAAVAYQGGYLNDNWGQGTQVTLSS | low polyreactivity
QVQLVESGGGLVQAGGSLRLSCAASGITLRYYAMGWYRQAPGKERELVAAITYSGTNTRYADSVKGRFTISRDNAKNTVYFQMNSLKPEDTAVYYCAARNGFGSPQMGYWGQGTQVTVSS | high polyreactivity
QVQLVESGGGLVQAGGSLRLSCAASGSTFVGNAMGWYRQAPGKERELVATIRYSDGSTYYADSVKGRFTISRDNAKNTVYLQMNSLKPEDTAVYYCATRVKQKGPYRYSARYFYTYNYWGQGTQVTVSS | high polyreactivity
QVQLVDSGGVLVQAVGSLRLSCAASGIIFDWYAMGWYRQAPGKERELVAAITANSDSTYYADSVNGRFTISRDNAKNTVYLQMNSLKPEDTAVYYCAARRQHRGANGGDYCGQGTQVTVSS | high polyreactivity
QVQLVESGGGLVQAGGSLRLSCDASGSIIIGNSMGWYRQAPGKERELVAVINGSDGTTYYADSVKGRFTISRDNAKNTVYLQMNSLKPEDTAVYYCNADFIDPSVYDYNYWGQGTQVTVSS | low polyreactivity
QVQLVESGGGLVQAGGSLRLSCAASGSIFEGYVMGWYRQAPGKERELVATISFSGGSTYYADSVKGRFTISRDNAKNTVYLQMNSLKPEDTAVYYSAAAGVYYGVRGTTYAYDYWGQGTQVTVSS | low polyreactivity
QVQLVESGGGLVQAGGSLRLSCAASRMGWYRQAPGKERELVARISGGVSTNYADSVRGRFTISRDNAKNTVYLQMNSVKPEDTAVYYCAADPLDTYDYWGQGTQATVSS | low polyreactivity
QVHLVESGGGLVQAGGSLRLSCAASASTLGSNTMGWYRQAPGKERELVATISRRGGSTYYADSVKGRFTISRDNAKYTVYLQMNSLKPADTAVYYCAARPVYKFGSWGQGTQVTVSS | high polyreactivity
QVQLVESGGGLVQAGGSLRLICAASGSTFWYYSMGWYRQAPGKERELVAAITRAGSTNYADSVKGRFTISRDNAKNTVYLQMNSLKPEDTAVYYCAADQYHYWYYLGGYDYWGQGTQVTVSS | high polyreactivity
QVQLVESGGGLVQAGGSLRLSCAASGRIFKSYAMGWYRQAPGKERELVATISISGGSTYYADSVKGRFTISRDNAKNTVYLQMNSLKPEDTAVYYCAADRYGLGDYDYWGQGTQVTVSS | low polyreactivity
QVQLVESGGGLVQAGGSLRLSCAASGSNFRRNAMGWYRQAPGKERELVAAISSNGGSTYYADSVKGRFTISRDNAKNTVYLQLNSLKPEDSAVYYCNALGRVRYSPRYGYDYWGQGTQVTVSS | high polyreactivity

Sequence | polyreactivity (PSR sort gate)
QVQLVESGGGLVQAGGSLRLSCAASGRIFGWYAMGWYRQAPGKERELVAAISSADSTNYADSVKGRFTIARDNAKNTVYLQMNSLKPEDTAVYYCNAEGLPGNVVYGYYYWGQGTQLTVSS | low polyreactivity
EEELVESGGGFVQVGGSLRLSCAASGSIFVENAMGWYRQAPGKARELVAAITSGGSTNYADSVKGRFTISRDNAKNTVYLQMNSLKPEDTAVYYCNADENYGYYTHFGYWGQGTQVTVSS | low polyreactivity
QVQLVESGGGLVQAGGSLRLSCAASGFIFGINAMGWYRQAPGKERELVAAISKRTGSTYYADSVKGRFTISRDNAKNTVYLQMNSLKPEDTAVYYCNVVRYNGLDKYDYWGQGTQVTVSS | high polyreactivity
QVQLVESGGGLVQAGGSLRLSCAASGFTFRNYAMGWYRQAPGKERELVAVIDWSGGRTYYADSVKGRFTISRDNAKNTVYLQMNSLKPEDTAVYYCNAVYGYRAYGGYGYWGQGTQVTVSS | high polyreactivity
QVQLVESGGCLVQAGGSLRLSCAASGRTFNRYAMGWYRQAPGKERELVAAITRRGGSTYYADSVKGRFTISRDNAKNTVYLQMNSLKPEDTAVYYCATDTYYSDYGSWGQGTQVTVSS | high polyreactivity
QVQLVESGGGLVQAGGSLRLICAASGSILQRNAMGWYRPAPGKERELVAAISWSGDNTYYADSVKGRFTISRDNAKNTVYLQMNSVKPEDTAVYYCATDADIYFQEYDYWGQGTQVTVSS | low polyreactivity
QVQLVESGGGLVQAGGSLRLSCAASGSIFNYNAMGWYRHAPGKERELFAAITYHGGSTYYADSVKGRFTISRDNAKYTVYLQMNSLKPEDTAVYYCNALRGYRPGWFDYWGQGTQVTVSS | high polyreactivity
QVQLVESGGGLVQAGGSLRLSCAASGFIFVYNDMGWYRQAPGKERELVAAISSSGGSTYYADSVKGRFTISRDNAKNTVYLKMNSLKAEDTAVYYCAKTGWNLDYSYSTDGYDYWGQGTLVTVSS | high polyreactivity
QDQLVESGGGLVQAGGSLRLSCAASGRTFKRYAMGWYRQAPGKERELVAAITFSGGSTYYADSVKGRFTISRDNAKNTVYLQMNSLKPEDTAVYYCAAGYRWTGGLKYDFWGQGTQVTVSS | high polyreactivity
QVQLLESWGGLVQAGGSLRLSCAASGSIFSYYAMGWYRQAPGKERELVATISSGDSTYYADTVKGRFTISRDNAKNTVYLQMHSLNPEDTEVYYCARKPRIRYYPAPYDYWGQGTQVTVSS | low polyreactivity
QVQLVESGGGLVQAGGSLRLSCAASGLTFRVYAMGWYRQAPGKERELVAAITGGGGSTYADSVKGRFTISRDNAKNTVYLQMNSLKPEDTAVYYCAAASPWDRDDYWGQGTQVTVSS | low polyreactivity
QVQLEESGGGLVQAGGSLRLICAASGFIFLYYAMGWYRQAPGKERELVAAIDYSGGSTNYADSVKGRFTISRDNAKNTVYLQMHSLKPEDTAVYFFNAEYTWHRGYDYWGQGTQVTVSS | low polyreactivity
QVQLVESGGGLVQAGGSLRLSCAASGITFEVYDMGWYRQAPGKERELVAAITWSAGRTYYADSVKGRFTISRDNAKNTVYLQMNSLKPEDTAVYYCAAEVYYYYRTYSYIWNRVDYDYWGQGTQVTVSS | low polyreactivity
QVQLVESGGGLVQAGGSLRLSCAASGSTFWAYVMGWYRQAPGKERELVAAISSGGTTNYADSVKGRFTISRDNAKNTVYLQMNSLKPEDTAVYYCAAEYPSVYYERFDYWGQGTQVTVSS | low polyreactivity
QVQLVESGGGLVQAGGSLRLSCAASGFIFTQNAMGWYRQAPGKERELVARISRRGGSTYYADSVKGRFTISRDNAKNTVYLQMNSLKPEDTAVYYCAATINYPGPTRFVSGNHDYWGQGTQVTVSS | high polyreactivity
QVQLVESGGGLVQAGGSLRLSCAASGLIFRSNAMGWYRQAPGKERELVAAISGSGGRTYYADSVKGRFTISRDNANNTVYLQMNSLKPEDTAVYYCAGRWSYRQNGYWGQGTQVTVSS | high polyreactivity
QVQLVESGGGLVQAGGSLRLTCAASGNTFTTNVMGWYRQAPGKERELVARISWSGTSTSYADSVKGRFTISRDNAKNTVYLQMNSLKPEDTAVYYCAVGGIVHIRSRAQQEYYYWGHGTQVTVSS | high polyreactivity
QVQLVESGGCLVQAGGSLRLSCAASGRTSVIYAMGWYRQAPGKERELVASIRRGGSTSYADSVKGRFTISRDNAKNTVYLQMNSLKPEDTAVYYCAADRYTWRKSYDYWGQGTQVTVSS | high polyreactivity
QVQLVESGGGLVQAGGSLRLSCAASGYTFQSYAMAWYRQAPWKERELVAAIRYSGGSTYADSVKGRFTISRDNAKNTVYLQMNSLKPEDTAVYYCAARSNSLLFDYWGQGTQVTVSS | low polyreactivity
QVQLVESGGGLVQAGGSLRLSCAASGSTFAYYAMGWYRQAPGKERELVAAISRTGGSTYYADSVKGRFTISRDNAKNTVYLQMNSLKPEDNAVYYCNARGPVGTFDYDYWGQGTQVTVSS | low polyreactivity
QVQLVESGGGLVQAGGSLRLSCAASGSIFYQNAMGWYRQAPGKERELVAAISSAGSTYYADSVKGRFTISRDNAKNTVYLQMNSLKPEDTAVYYCARRSSGELGYHIYDYWGQGTQVTVSS | low polyreactivity
